# Assay results reported in article PMC4519180 (2015).
# No end group written: not given here. *: point of attachment. 6FAM = O=C1OC2(c3ccc(O)cc3Oc3cc(O)ccc32)c2cc(C(=O)*)ccc21
# Target: recombinant purified ABL SH3 domain alone (human)
# Sequence (chain, as listed by the source): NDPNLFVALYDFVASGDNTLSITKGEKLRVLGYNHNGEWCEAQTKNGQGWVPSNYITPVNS
row,Kd,Binder
1,1500 nM,APSYSPPPPP [unlabeled p41 peptide]
2,34000 nM,"6FAM-APTMPPPLPP [3BP-1 probe peptide, labeled with 6-carboxyfluorescein]"
3,400 nM,"6FAM-APTYPPPLPP [p40 probe peptide, labeled with 6-carboxyfluorescein]"
